Results: US20100087625
Changes are numbered by the printed parent chain.

Assays:
[1] = test system: T1, recombinant human proBMP-2 (wild type, produced by CHO-BMP-2 cells)
T1 sequence: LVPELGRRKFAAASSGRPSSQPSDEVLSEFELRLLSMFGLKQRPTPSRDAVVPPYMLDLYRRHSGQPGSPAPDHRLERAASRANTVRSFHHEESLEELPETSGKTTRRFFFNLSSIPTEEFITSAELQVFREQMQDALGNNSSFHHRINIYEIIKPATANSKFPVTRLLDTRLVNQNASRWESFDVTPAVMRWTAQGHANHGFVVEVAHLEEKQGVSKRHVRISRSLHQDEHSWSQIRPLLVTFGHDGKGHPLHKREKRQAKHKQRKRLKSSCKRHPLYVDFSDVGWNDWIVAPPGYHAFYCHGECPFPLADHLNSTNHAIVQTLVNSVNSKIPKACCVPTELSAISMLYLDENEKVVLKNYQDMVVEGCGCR

[2] = test system: T2, S1proBMP-2 (human proBMP-2 with the S1 furin cleavage site REKR replaced by TNGIEGRALDP; constructs IND2340 and IND2341)
T2 sequence: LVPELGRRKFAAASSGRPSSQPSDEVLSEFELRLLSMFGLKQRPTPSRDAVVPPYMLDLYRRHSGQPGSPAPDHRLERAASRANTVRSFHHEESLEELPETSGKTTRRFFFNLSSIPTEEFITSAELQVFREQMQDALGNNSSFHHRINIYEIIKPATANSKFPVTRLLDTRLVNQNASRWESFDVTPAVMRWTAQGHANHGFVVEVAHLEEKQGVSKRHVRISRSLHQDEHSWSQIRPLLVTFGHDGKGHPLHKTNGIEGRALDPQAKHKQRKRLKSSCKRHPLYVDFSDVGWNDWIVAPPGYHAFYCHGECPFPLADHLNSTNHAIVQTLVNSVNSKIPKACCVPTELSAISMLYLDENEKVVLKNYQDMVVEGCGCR

[3] = test system: T3, S1S2proBMP-2 (human proBMP-2 with S1 site REKR replaced by TNGIEGRALDP and S2 site RISR mutated to AISR; construct IND2372)
T3 sequence: T2 sequence with R222A

## furin (Sigma)
[1]
  Western blot after in vitro digestion with furin: the purified CHO proBMP-2 monomers migrated at approximately 55 kDa were cleaved after 1 hr incubation with furin

## Factor Xa (Restriction Protease Factor Xa Cleavage and Removal Kit, Roche Applied Science Cat #1 644 777)
[2]
  Western blot after digestion with Factor Xa: Cleavage of mutant BMPs S1 proBMP and S1 S2proBMP-2 by Factor Xa produced a mature BMP-2 that remained a dimer under non-reducing conditions with an apparent molecular weight of 30-32 KD
[3]
  Western blot after digestion with Factor Xa: Cleavage of mutant BMPs S1 proBMP and S1 S2proBMP-2 by Factor Xa produced a mature BMP-2 that remained a dimer under non-reducing conditions with an apparent molecular weight of 30-32 KD
